Numbered stars: 1 amine (or outer) side, 2 acyl side, 3 side chain; on linkers, the order of the positions; unused ones are H or OH. Bridge positions count the residues as written; N and C are the ends. * marks the point of attachment. C20 diacid = O=C(O)CCCCCCCCCCCCCCCCCCC(=O)*; γGlu = O=C(O)[C@H](CCC(=O)[*:2])N[*:1]
T1: rat calcitonin receptor (rat, UniProt P32214 25-516)
T1 construct: whole, on cells; Membranes of transiently transfected BHK tk'ts 13 cells; also called rCTR; rat calcitonin (a) receptor
T1 sequence (looked up): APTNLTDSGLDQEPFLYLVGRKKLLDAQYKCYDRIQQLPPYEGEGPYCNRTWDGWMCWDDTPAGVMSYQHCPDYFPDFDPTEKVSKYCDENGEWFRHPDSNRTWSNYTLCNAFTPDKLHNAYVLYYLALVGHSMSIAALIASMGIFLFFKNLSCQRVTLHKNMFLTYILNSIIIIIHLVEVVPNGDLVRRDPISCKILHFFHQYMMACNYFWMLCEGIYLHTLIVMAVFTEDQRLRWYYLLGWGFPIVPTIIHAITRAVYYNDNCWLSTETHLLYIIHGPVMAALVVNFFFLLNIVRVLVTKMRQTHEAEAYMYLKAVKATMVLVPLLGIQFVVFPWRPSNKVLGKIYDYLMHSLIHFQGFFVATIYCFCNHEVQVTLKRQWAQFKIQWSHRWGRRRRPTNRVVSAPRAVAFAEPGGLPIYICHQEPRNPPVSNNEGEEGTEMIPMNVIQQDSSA

T2: human calcitonin receptor (human, UniProt P30988 25-474)
T2 construct: whole, on cells; Membranes of stably transfected cells; also called hCTR; hCT
T2 sequence (looked up): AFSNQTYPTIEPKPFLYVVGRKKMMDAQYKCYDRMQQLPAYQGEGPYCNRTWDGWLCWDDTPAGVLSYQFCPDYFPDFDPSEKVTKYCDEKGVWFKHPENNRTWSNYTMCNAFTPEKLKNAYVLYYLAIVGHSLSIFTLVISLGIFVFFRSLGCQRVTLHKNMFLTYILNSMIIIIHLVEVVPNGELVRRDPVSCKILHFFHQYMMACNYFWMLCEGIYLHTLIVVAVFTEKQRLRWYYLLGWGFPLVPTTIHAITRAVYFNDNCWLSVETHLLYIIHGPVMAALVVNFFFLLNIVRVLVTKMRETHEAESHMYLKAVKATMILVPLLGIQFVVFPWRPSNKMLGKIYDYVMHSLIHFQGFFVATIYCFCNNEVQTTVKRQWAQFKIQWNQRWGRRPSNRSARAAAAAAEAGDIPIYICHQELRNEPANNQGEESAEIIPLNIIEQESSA

T3: rat amylin receptor (rat calcitonin receptor + rat RAMP 3) (rat, UniProt P32214 25-516; Q9JJ73 23-147)
T3 construct: whole, on cells; Membranes of transiently transfected BHK tk'ts 13 cells; also called rAmylin-R; rat amylin 3(a) receptor
T3 sequence (looked up) 1: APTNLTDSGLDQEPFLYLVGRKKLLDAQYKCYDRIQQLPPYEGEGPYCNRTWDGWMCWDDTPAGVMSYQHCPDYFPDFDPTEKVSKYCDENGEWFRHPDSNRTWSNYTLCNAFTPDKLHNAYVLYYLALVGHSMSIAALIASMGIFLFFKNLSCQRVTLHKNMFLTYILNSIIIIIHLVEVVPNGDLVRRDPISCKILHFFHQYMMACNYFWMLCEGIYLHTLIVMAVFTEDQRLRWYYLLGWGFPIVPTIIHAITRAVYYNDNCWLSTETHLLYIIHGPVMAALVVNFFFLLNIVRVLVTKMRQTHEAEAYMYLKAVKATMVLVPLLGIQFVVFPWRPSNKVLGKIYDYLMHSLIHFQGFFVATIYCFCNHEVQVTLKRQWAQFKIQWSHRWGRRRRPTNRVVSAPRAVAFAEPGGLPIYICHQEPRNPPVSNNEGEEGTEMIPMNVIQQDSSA
T3 sequence (looked up) 2: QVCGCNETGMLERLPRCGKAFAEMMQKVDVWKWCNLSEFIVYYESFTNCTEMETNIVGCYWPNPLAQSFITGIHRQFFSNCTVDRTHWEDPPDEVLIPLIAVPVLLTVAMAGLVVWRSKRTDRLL


Tests used:
rat calcitonin receptor [1] = biological target: T1, rat calcitonin receptor; assay: ratio of IC50 on rat calcitonin receptor to IC50 on rat amylin receptor (reference m40)
[2] = biological target: T2, human calcitonin receptor; assay: ratio of IC50 on human calcitonin receptor to IC50 on human amylin receptor (reference m42), SPA competition
In short: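 Membranes (35 ng/μL final) + SPA beads, 50 mM Hepes pH 7.4 buffer with 1 mM CaCl2, 5 mM MgCl₂, 0.1% OA, 0.02% Tween20; 120 min, 25° C, shaking; centrifuged, counted; IC₅₀ by one-site binding competition.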

rat calcitonin receptor [3] = biological target: T1, rat calcitonin receptor; assay: SPA competition with 125I-calcitonin on membranes of BHK tk'ts 13 cells with rat calcitonin receptor (Assay VIII)
[4] = biological target: T3, rat amylin receptor (rat calcitonin …); assay: SPA competition with 125I-rat amylin on membranes of BHK tk'ts 13 cells with rat calcitonin receptor + rat RAMP3 (Assay VI)

Ratio rCT/rAmylin binding (rat calcitonin receptor [1])	Ratio hCT/hAmylin binding [2]	IC50 (rat calcitonin receptor [3])	IC50 [4]	Binder
27.7	65.3	311 nM	11.2 nM	{C20 diacid-γGlu}-GRCNTATCATQRLAHFLRHSSPNFGAIPSSTNVGHNTY-NH2 (disulfide 3-8; SMILES CC[C@H](C)[C@H](NC(=O)[C@H](C)NC(=O)CNC(=O)[C@H](Cc1ccccc1)NC(=O)[C@H](CC(N)=O)NC(=O)[C@@H]1CCCN1C(=O)[C@H](CO)NC(=O)[C@H](CO)NC(=O)[C@H](Cc1c[nH]cn1)NC(=O)[C@H](CCCNC(=N)N)NC(=O)[C@H](CC(C)C)NC(=O)[C@H](Cc1ccccc1)NC(=O)[C@H](Cc1c[nH]cn1)NC(=O)[C@H](C)NC(=O)[C@H](CC(C)C)NC(=O)[C@H](CCCNC(=N)N)NC(=O)[C@H](CCC(N)=O)NC(=O)[C@@H](NC(=O)[C@H](C)NC(=O)[C@@H]1CSSC[C@H](NC(=O)[C@H](CCCNC(=N)N)NC(=O)CNC(=O)CC[C@H](NC(=O)CCCCCCCCCCCCCCCCCCC(=O)O)C(=O)O)C(=O)N[C@@H](CC(N)=O)C(=O)N[C@@H]([C@@H](C)O)C(=O)N[C@@H](C)C(=O)N[C@@H]([C@@H](C)O)C(=O)N1)[C@@H](C)O)C(=O)N1CCC[C@H]1C(=O)N[C@@H](CO)C(=O)N[C@@H](CO)C(=O)N[C@H](C(=O)N[C@@H](CC(N)=O)C(=O)N[C@H](C(=O)NCC(=O)N[C@@H](Cc1c[nH]cn1)C(=O)N[C@@H](CC(N)=O)C(=O)N[C@H](C(=O)N[C@@H](Cc1ccc(O)cc1)C(N)=O)[C@@H](C)O)C(C)C)[C@@H](C)O, Synthetic acylated analogue of human amylin, extended by Gly at position -1; also called compound 100)
60.9	68.6	492 nM	8.07 nM	{C20 diacid-γGlu}-GRCNTATCATQRLAAFLRHSSPNFGAIPSSTNVGHNTY-NH2 (disulfide 3-8; SMILES CC[C@H](C)[C@H](NC(=O)[C@H](C)NC(=O)CNC(=O)[C@H](Cc1ccccc1)NC(=O)[C@H](CC(N)=O)NC(=O)[C@@H]1CCCN1C(=O)[C@H](CO)NC(=O)[C@H](CO)NC(=O)[C@H](Cc1c[nH]cn1)NC(=O)[C@H](CCCNC(=N)N)NC(=O)[C@H](CC(C)C)NC(=O)[C@H](Cc1ccccc1)NC(=O)[C@H](C)NC(=O)[C@H](C)NC(=O)[C@H](CC(C)C)NC(=O)[C@H](CCCNC(=N)N)NC(=O)[C@H](CCC(N)=O)NC(=O)[C@@H](NC(=O)[C@H](C)NC(=O)[C@@H]1CSSC[C@H](NC(=O)[C@H](CCCNC(=N)N)NC(=O)CNC(=O)CC[C@H](NC(=O)CCCCCCCCCCCCCCCCCCC(=O)O)C(=O)O)C(=O)N[C@@H](CC(N)=O)C(=O)N[C@@H]([C@@H](C)O)C(=O)N[C@@H](C)C(=O)N[C@@H]([C@@H](C)O)C(=O)N1)[C@@H](C)O)C(=O)N1CCC[C@H]1C(=O)N[C@@H](CO)C(=O)N[C@@H](CO)C(=O)N[C@H](C(=O)N[C@@H](CC(N)=O)C(=O)N[C@H](C(=O)NCC(=O)N[C@@H](Cc1c[nH]cn1)C(=O)N[C@@H](CC(N)=O)C(=O)N[C@H](C(=O)N[C@@H](Cc1ccc(O)cc1)C(N)=O)[C@@H](C)O)C(C)C)[C@@H](C)O, Synthetic acylated analogue of human amylin, extended by Gly at position -1)
129	26.5	56.3 nM	0.436 nM	{C20 diacid-γGlu}-GRCNTATCATQRLAAFLRHSSPNFGAIPSSTNVGPNTY-NH2 (disulfide 3-8, Synthetic acylated analogue of human amylin, extended by Gly at position -1)
